Measured values published in US20250152729A1 (CANCER RESEARCH TECHNOLOGY, published 2025).

T1: recombinant cynomolgus SEMA4A AviHis10, biotinylated (cynomolgus, UniProt Q9H3S1 32-677 (human entry), biotin on the Avi tag (BirA))
T1 construct: The text says amino acids 32-679 of G7NV79 with C-terminal Avi tag and His10 tag; also called Cyno SEMA4A AviHis10; cynoSEMA4A
T1 chain: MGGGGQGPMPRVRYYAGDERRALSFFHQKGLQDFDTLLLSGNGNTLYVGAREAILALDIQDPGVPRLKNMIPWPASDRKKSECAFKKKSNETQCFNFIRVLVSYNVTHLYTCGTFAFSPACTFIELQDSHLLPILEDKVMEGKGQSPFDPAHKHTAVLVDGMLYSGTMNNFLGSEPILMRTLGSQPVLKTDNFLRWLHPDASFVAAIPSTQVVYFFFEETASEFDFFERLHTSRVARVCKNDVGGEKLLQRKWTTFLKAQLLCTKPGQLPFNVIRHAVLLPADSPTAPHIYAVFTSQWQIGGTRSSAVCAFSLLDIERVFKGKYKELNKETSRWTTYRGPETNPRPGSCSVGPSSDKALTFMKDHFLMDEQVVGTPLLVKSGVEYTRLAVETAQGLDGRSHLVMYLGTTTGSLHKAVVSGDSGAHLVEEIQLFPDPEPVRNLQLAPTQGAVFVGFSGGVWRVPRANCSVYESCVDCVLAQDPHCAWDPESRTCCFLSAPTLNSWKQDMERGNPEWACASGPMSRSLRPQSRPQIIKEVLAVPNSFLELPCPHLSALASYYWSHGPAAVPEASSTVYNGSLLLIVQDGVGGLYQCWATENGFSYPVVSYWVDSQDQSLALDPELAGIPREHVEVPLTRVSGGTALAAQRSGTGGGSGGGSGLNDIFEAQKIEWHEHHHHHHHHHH

T2: recombinant human SEMA4A AviHis10, biotinylated (human, UniProt Q9H3S1 33-683, biotin on the Avi tag (BirA))
T2 construct: The text says amino acids 33-683 of Q9H3S1 with C-terminal Avi tag and His10 tag; also called avi-SEMA4A-His10
T2 sequence: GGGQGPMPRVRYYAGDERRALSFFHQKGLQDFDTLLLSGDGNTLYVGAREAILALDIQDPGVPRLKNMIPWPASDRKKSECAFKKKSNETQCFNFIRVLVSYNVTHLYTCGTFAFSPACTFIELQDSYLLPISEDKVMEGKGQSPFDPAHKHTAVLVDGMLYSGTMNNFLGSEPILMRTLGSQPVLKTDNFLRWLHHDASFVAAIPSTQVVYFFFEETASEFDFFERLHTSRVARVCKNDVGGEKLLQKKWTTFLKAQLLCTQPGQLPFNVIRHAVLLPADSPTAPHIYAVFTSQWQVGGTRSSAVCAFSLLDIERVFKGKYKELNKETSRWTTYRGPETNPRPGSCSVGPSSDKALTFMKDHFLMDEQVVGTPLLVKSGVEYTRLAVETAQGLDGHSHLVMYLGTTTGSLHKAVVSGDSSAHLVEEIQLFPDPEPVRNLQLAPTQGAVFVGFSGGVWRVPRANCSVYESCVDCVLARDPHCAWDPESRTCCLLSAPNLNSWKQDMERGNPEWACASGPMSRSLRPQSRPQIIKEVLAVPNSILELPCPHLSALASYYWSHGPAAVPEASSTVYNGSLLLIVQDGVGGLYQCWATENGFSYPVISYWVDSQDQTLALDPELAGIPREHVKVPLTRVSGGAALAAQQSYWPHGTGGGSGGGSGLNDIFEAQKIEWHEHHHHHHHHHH


Experiments:
[1] = target: T1, recombinant cynomolgus SEMA4A AviHis10, …; assay: BLI (OctetRED), biotinylated SEMA4A on streptavidin tip, IgG as analyte, 1:1 model; KD(observed) IgG
Protocol: (§1) An Octet Kinetics buffer (PBS containing 0.01% (v/v) BSA and 0.002% (v/v) Tween20) is typically used as the diluent buffer for the analyte samples and as the flow buffer during the dissociation phase. The experimental data is recorded as shift in interference pattern (nm) over time, which is directly proportional to the optical thickness at the biosensor tip, which in turn is an approximate measure of the mass of analyte bound. The proprietary Octet Data Analysis software package can then be used to process data and fit binding models to the data sets. Returned association (ka, M-1 s-1) and dissociation (kd, s-1) rate constants allow calculation of dissociation (KD, M) affinity constants.
(§2) The affinity of binding between the analytes (humanised and phage display derived IgGs as human Alya IgG1s and Fabs) and human SEMA4A and cynomolgus SEMA4A, was estimated using assays in which the biotinylated SEMA4A antigen was captured on a streptavidin sensor tip. A fresh sensor tip was used for each measurement and no regeneration was used. A series of dilutions of the lead Fabs and human Alya IgG1s (3.25-240 nM) were individually placed in contact with the ligand surface for a sufficient amount of time to observe sensorgrams that could be fitted to an appropriate binding model with confidence (typically 5 minutes), followed by an appropriate length of dissociation time (typically 10 minutes). Blank reference (0 nM analyte) data were subtracted from each dataset to reduce the impact of any buffer artefacts or non-specific binding effects. A 1:1 binding model was then fitted simultaneously to the data from each analyte titration using the Octet Evaluation software (Table 8).

[2] = target: T2, recombinant human SEMA4A AviHis10, …; assay: as above
Protocol: as §1, §2

| Binder | Kd [1] | Kd [2] |
| --- | --- | --- |
| C0120917 human Alya IgG1 (antibody, V domains shown, Fully human, phage display derived; human IgG1 Alya constant (239iCys, S442C, EU); unconjugated) VH: not shown VL: NFMLTQPHSVSESPGKTVTISCTASGDTLDNKYVNWYQVRPGSAPATLIFHYEERDSGVPDRFSGSFDASSNSASLTISGLQTADEADYFCQSYDSKRDNLVVFGGGTKVTVL | 6 nM | 14 nM |
| 5Hg1-5Lg1 human Alya IgG1 (antibody, V domains shown, Humanised 5E3; human IgG1 Alya constant (239iCys, S442C, EU), lambda light chain; purified, unconjugated) VH: QVQLVQSGAEVKKPGASVKVSCKASGYTFTDYWMHWVRQAPGQGLEWMGAIDTSDSYTSYNQKFKGRVTMTRDTSTSTVYMELSSLRSEDTAVYYCARDYGNFYYYAMDYWGQGTLVTVSS VL: QAVVTQEPSLTVSPGGTVTLTCRSSTGAVTTSNYANWFQQKPGQAPRTLIYGTNNRAPWTPARFSGSLLGGKAALTLSGAQPEDEAEYYCALWYSNHWVFGGGTKLTVL |  | ≤ 2 nM |
| 5Hg2-5Lg2 human Alya IgG1 (antibody, V domains shown, Humanised 5E3; human IgG1 Alya constant (239iCys, S442C, EU), lambda light chain; purified, unconjugated) VH: QVQLVQSGAEVKKPGASVKVSCKASGYTFTDYWMHWVRQAPGQRLEWMGAIDTSDSYTSYNQKFKGRVTITRDTSASTAYMELSSLRSEDTAVYYCARDYGNFYYYAMDYWGQGTLVTVSS VL: QAVVTQEPSLTVSPGGTVTLTCRSSTGAVTTSNYANWFQQKPGQAPRTLIYGTNNRAPWTPARFSGSLLGGKAALTLLGAQPEDEAEYYCALWYSNHWVFGGGTKLTVL |  | ≤ 2 nM |
| C0120914 human Alya IgG1 (antibody, V domains shown, Fully human, phage display derived; human IgG1 Alya constant (239iCys, S442C, EU); unconjugated) VH: QVQLQESGPGLVKPSETLSLTCTVSGGSVSSGRYDWSWIRQPPGKGLEWIGHIYYTGITDYNPSLRSRVTISADKPKNQFSLKLNSVTAADTAVYYCARGPFFDPWGQGTMVTVSS VL: QSVLTQPPSVSVAPGQTASLTCGANNIGSKSVQWYQQKPGQAPVLVVYDGSDRPSGIPDRFSGSSSENTATLTISRVEAGDEADYYCQLWDSVTDRPVFGGGTKVTVL | 97 nM | 21 nM |
| C0120906 human Alya IgG1 (antibody, V domains shown, Fully human, phage display derived; human IgG1 Alya constant (239iCys, S442C, EU); unconjugated) VH: EVQLVQSGPEVKKPGASVKISCKASGYKLNDPGVHGVSWVRQAPGQGLEWMGWISTLNGDTRYAQKFQGRVTMATDSSTSTIYMDLRSLKSDDTALYYCARDDYTAIFDFWGRGTLVTVSS VL: QSVLTQPPSVSVAPGQTASITCGGSNIGSQSVHWYQQKPGQAPVLVVYDDSDRPSGIPERFSGSKSGNTASLILSRVEAGDEADYYCQVWDSSTDHHVFGTGTKVTVL | 2 nM | 11 nM |
| C0120903 human Alya IgG1 (antibody, V domains shown, Fully human, phage display derived; human IgG1 Alya constant (239iCys, S442C, EU); unconjugated) VH: EVQLVQSGAEVKKPGSSMKVSCKASGGTFNSYTINWVRQAPGQGLEWVGGFIPIFGTADYAQKFHGRVAITADESMSTAYMELSSLRSEDTAVYYCARAPLGSEPFDYWGQGTMVTVSS VL: SYVLTQPPSVSVAPGQTARITCGGNNIGSKSVHWYQQKPGQAPVLVVYDDSDRPSGIPERFSGSNSGNTATLTISRVEAGDEADYYCQVWDSSSDHLVFGGGTKLTVL | 20 nM | 6 nM |
| C0120905 human Alya IgG1 (antibody, V domains shown, Fully human, phage display derived; human IgG1 Alya constant (239iCys, S442C, EU); unconjugated) VH: not shown VL: NFMLTQPHSVSESPGKTVTISCTGSGGNIVDNFVQWHQQRPGSAPRTVIYEDDQRPSGVPDRFSASVDSSSNSGTLSISGLKTEDEADYYCQSYDGANRWVFGGGTKLTVL | 9 nM | 10 nM |
| mouse 5E3 expressed as human IgG1 Alya (antibody, V domains shown, Mouse variable domains on human IgG1 Alya constant (pEU1.22; 239iCys and S442C, EU numbering); purified, unconjugated; also called 5E3 IgG1 Alya) VH: QVQLQQPGAELVMPGASVKMSCKASGYTFTDYWMHWVKQRPGQGLEWIGAIDTSDSYTSYNQKFKGKATLTVDESSSTAYMQLSSLTSEDSAVYYCARDYGNFYYYAMDYWGQGTSVTVSS VL: QAVVTQESALTTSPGETVTLTCRSSTGAVTTSNYANWVQEKPDHLFTGLIGGTNNRAPGVPARFSGSLIGDKAALTITGAQTEDEAIYFCALWYSNHWVFGGGTKLTVL | ≤ 1 nM |  |
| C0120918 human Alya IgG1 (antibody, V domains shown, Fully human, phage display derived; human IgG1 Alya constant (239iCys, S442C, EU); unconjugated) VH: not shown VL: SYELTQPPSVSVSPGQTARITCSGDALPKQYAYWYQQKPGQAPVLVIYKDSERPSGIPERFSGSSSGTTVTLTISGVQAEDEADYYCQSADSSGTWVFGGGTKVTVL | 9 nM | 9 nM |
